# Experimental data taken from PMC10624902, “Structure of a membrane-bound menaquinol:organohalide oxidoreductase” (Nature Communications, 2023).
# B1: PceA, catalytic subunit of the tetrachloroethene (PCE) reductive dehalogenase from Desulfitobacterium hafniense strain TCE1 (enzyme, UniProt Q8GJ31 40-551, looked up)
# chain: ADIVAPITETSEFPYKVDAKYQRYNSLKNFFEKTFDPEANKTPIKFHYDDVSKITGKKDTGKDLPTLNAERLGIKGRPATHTETSILFHTQHLGAMLTQRHNETGWTGLDEALNAGAWAVEFDYSGFNATGGGPGSVIPLYPINPMTNEIANEPVMVPGLYNWDNIDVESVRQQGQQWKFESKEEASKIVKKATRLLGADLVGIAPYDERWTYSTWGRKIYKPCKMPNGRTKYLPWDLPKMLSGGGVEVFGHAKFEPDWEKYAGFKPKSVIVFVLEEDYEAIRTSPSVISSATVGKSYSNMAEVAYKIAVFLRKLGYYAAPCGNDTGISVPMAVQAGLGEAGRNGLLITQKFGPRHRIAKVYTDLELAPDKPRKFGVREFCRLCKKCADACPAQAISHEKDPKVLQPEDCEVAENPYTEKWHLDSNRCGSFWAYNGSPCSNCVAVCSWNKVETWNHDVARIATQIPLLQDAARKFDEWFGYNGPVNPDERLESGYVQNMVKDFWNNPESIKQ
# notes: PceA, catalytic subunit of the PCE reductive dehalogenase, Desulfitobacterium hafniense strain TCE1 (DSM 12704), locus tag DeshaDRAFT_2412; C-terminal domain printed as S486-Q551; Native protein with a cobalamin and two [4Fe-4S] clusters; a menaquinone lies at the interface with PceB; the modelled residues are in PDB 8Q4H; also called DhPceA; RdhA; source: endogenous, D. hafniense strain TCE1: …
# B2: PceB, integral membrane anchor subunit of the PCE reductive dehalogenase from Desulfitobacterium hafniense strain TCE1 (natural protein, UniProt Q8GJ30 1-105, looked up)
# chain: MNIYDVLIWMALGMTALLIQYGIWRYLKGKGKDTIPLQICGFLANFFFIFALAWGYSSFSEREYQAIGMGFIFFGGTALIPAIITYRLANHPAKKIRESSDSISA
# notes: PceB, small integral membrane subunit with three transmembrane helices, encoded in the pceABCT operon of Desulfitobacterium hafniense strain TCE1; also called DhPceB; RdhB; source: endogenous, D. hafniense strain TCE1: DDM-solubilised membrane extract; purified as PceA2B2 complex by size-exclusion chromatography (Superose 6 Increase) for cryo-EM
# Assays:
# [1] = biological target: T1, PceA2B2 complex (menaquinol:organohalide oxidoreductase, MOOR; DhPceA / DhPceB) (Desulfitobacterium hafniense, UniProt Q8GJ30+Q8GJ31); assay: cryo-EM structure, […] A; assay type: binding; details: PceA active site / channel, 5.3 A from cobalt; cells grown with PCE
# T1 construct: gene pceA; native complex from D. hafniense membranes, DDM-solubilised, SEC into LMNG; no tag; PceA C-terminal domain S486-Q551 present; PceA exported via Tat
# T1 sequence (Q8GJ31 40-551): B1 chain
# T1 sequence (Q8GJ30 1-105): B2 chain
# [2] = biological target: the molecule itself; assay: native gel or EMSA; Clear-Native PAGE (5-15% gradient, Bis-Tris) of DDM-solubilised membrane extract and soluble fraction, anaerobic; Coomassie and in-gel PCE dehalogenase activity staining; the ~180 kDa band cut out, run on SDS-PAGE as second dimension and analysed by LC-MS/MS
# [3] = biological target: the molecule itself; assay: cryo-EM structure; native PceA2B2 complex purified from the membrane extract by SEC in 25 mM HEPES-NaOH pH 7.5, 150 mM NaCl, 0.005% LMNG; single-particle analysis, C2 symmetry, 2.83 Å
molecule,measurement,setting,value
"Cl/C=C\Cl [cis-1,2-dichloroethene]","cryo-EM structure, 2.83 A",[1],"density for a dichloroethene (DCE) molecule, the final product of PCE dechlorination"
B1,stoichiometry N,[2],2
B2,binding result,[3],binds
